Laboratory results from patent US20160017348A1.

Target: H3K4AK9me2 peptide (UniProt P59226)
Test: ITC; reference is the H3K9me2 peptide

B1: SHH1 SAWADEE domain (residues 125-258) (protein)
chain: ADLAFEAKSARDYAWYDVSSFLTYRVLRTGELEVRVRFSGFDNRHDEWVNVKTSVRERSIPVEPSECGRVNVGDLLLCFQEREDQALYCDGHVLNIKRGIHDHARCNCVFLVRYELDNTEESLGLERICRRPEE
fold weaker affinity than with the H3K9me2 peptide: 30 fold
